Data reported in the nanobody polyreactivity screen of Harvey et al. (2022).

experiment: yeast display, Sf9 membrane polyspecificity reagent, FACS + sequencing; frameworks hold sequencing errors
Summary of the method: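 Synthetic nanobody libraries on Saccharomyces cerevisiae BJ5465 were galactose-induced for 36–48 hours, stained 1 hour at 4 °C with 10% biotinylated, detergent-solubilized Sf9 membrane reagent and enriched on streptavidin microbeads. FACS then separated cells into low and high (top ~1%) gates by anti-HA (expression) and streptavidin (reagent binding) fluorescence. Genes were colony-PCR amplified, MiSeq 2 × 250 sequenced and CDR-length filtered. A clone's polyreactivity label is that of its gate of origin.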

| Sequence | polyreactivity (PSR sort gate) |
| --- | --- |
| QVQLVESGGGLVQAGGSLRLSCAASGITFPGNVMGWYRQAPGKERELVAAISTSGGSTYYADSVKGRFTISRDNAKNTVYLQMNSLKPEDTAVYYCARQYIRSSYGYWGQGTQVTVSS | low polyreactivity |
| QVQLVESGGGLVQAGGSLRLSCAASGITFPGYAMGWYRQAPGKERELVAAIDRSGDGTYYADSVKGRFTISRDNAKNTVYLQMNSLKPEDPAVYYCAKDNYPNHSTVLAVIYDYWGQGTQVTVSS | low polyreactivity |
| QVQLVESGGGLVQAGGSLRLSCAASGITFPGYAMGWYTQAPGKERELVAVIRKSGTSTYYADSVKGRFTISRDNAKNTVYLQMNSLKPEDTAVYYCAAGGPSTLDDYWGQGTQVTVSS | low polyreactivity |
| QVQLVESGGGLVQAGGSLRLSCAASGITFPLYVLGWYRQAPGKDRELVAAISASGGSTYADSVKGRFTISRDNAKNTVYFQMNSLKTEVTAVYYCNADVYVGYEYDYWGQGTQVTVSS | low polyreactivity |
| QVQLVESGGGLVQAGGSLRLSCAASGITFPRNAMGWYRQAPGKERELVAAISARGGNTYYADSVKGRFTISRDNSKNNVYLQMNSLKPEDTAVYFCNALGSSYSEPSEYDYWGQGTQVTVSS | low polyreactivity |
| QVQLVESGGGLVQAGGSLRLSCAASGITFPRYAMGGYRPAPGKERELVATITRTGRTNYADSVKGRFTISRDNAKNTVYLQKNSLKPEDTPVYYCAARNRRERKGKMDYWGQGTQVTVSS | high polyreactivity |
| QVQLVESGGGLVQAGGSLRLSCAASGITFPWYAMGWYRQAPGKERELVAAISSDADTYYADSVKGRFTISRDNAKNTVYLQMISLKPEDTAVYYCAAETFDYSRGYTAMGYWGQGTQVTVSS | high polyreactivity |
| QVQLVESGGGLVQAGGSLRLSCAASGITFPYYAMGWDRQAPGKERELVAAISSSGGSTYYADSVKGRFTISRDNAKNTVYLQMNSLKPEDTAVYYCAAQRYINYDYWGQGTQVTVSS | high polyreactivity |
| QVQLVESGGGLVQAGGSLRLSCAASGITFPYYAMGWYRQAPGKERELVAAISSGGSTNYADSVKGRFTISRDNAKNTVYLQMNSLKPEDTAVYYCNADVRSYFYDYWGQGTQVTVSS | low polyreactivity |
| QVQLVESGGGLVQAGGSLRLSCAASGITFQLYAMGWYRQAPGKERELVAAIDASGGITNYADSVKGRFTISRDNAKNTVYLQMNSLKPEDTAVYYCASFFKLRYRYQFWRYGFGYWGQGTQVTVSS | high polyreactivity |
| QVQLVESGGGLVQAGGSLRLSCAASGITFQWYTMGWYRQAPGKERELVATISSGGSTNYADSVKGRFTISRDNAKNTVYLQMNSLKPEDTPVYYCAAYDYISSTYFLDEYWGQGTQVTVSS | low polyreactivity |
| QVQLVESGGGLVQAGGSLRLSCAASGITFQYNAMGWYRQAPGKERELVATIRRGGITKYADSVKGRFTISRDNAKNTVSLQMNSLKPEDSAVYYCAADFWYYQYPYGGGGYWGQGTQVTVSS | low polyreactivity |
| QVQLVESGGGLVQAGGSLRLSCAASGITFQYYAMGWYRQAPGKERELVAAITKRGGSTYYADSVKGRFTISRDNAKNTVYLQMTSLKPEETAVYYCAADLGGNSRLDYWGQGTQVTVSS | high polyreactivity |
| QVQLVESGGGLVQAGGSLRLSCAASGITFRCNAMGWYRQAPGKERELVASITGGTDTYYADSVKGRFTISRDNAKKTVYLQMNSLKPEASAVYYCAAPSNQYFRYKRRYYYWGQGTQVTVSS | high polyreactivity |
| QVQLVESGGGLVQAGGSLRLSCAASGITFRFNAMGWYRQAPGKEREFVAAITYSGDSTYYADSVKGRFTISRDNAKNTVYLQMNSLKPEDTAVYYCAADYYAISRRIFYYWGQGTQVTVSS | low polyreactivity |
| QVQLVESGGGLVQAGGSLRLSCAASGITFRGYAMGWYRQAPGKERELVAAISSRGGSTYYADSVKGRFTISRDNAKNTVYLQMNSLKPEDTAVYYCNAVSGLYFTYTYDYWGQGTQVTVSS | high polyreactivity |
| QVQLVESGGGLVQAGGSLRLSCAASGITFRGYAMGWYRQAPGTERELVAAITGSGTSTYADSVKGRFTISRDNAKNTVYLQMNILKPEDTAVYYCAADTYDPFYYGYGYWGQGTQVTVSS | low polyreactivity |
| QVQLVESGGGLVQAGGSLRLSCAASGITFRGYARGWYRQAPGKERELVASITNTDSTYYADSVKGRFTISRDNAKNTVYLQMNSLKPEDTAVYYCAARRGRKYGYWGQGTQVTVSS | high polyreactivity |
| QVQLVESGGGLVQAGGSLRLSCAASGITFRRYAMGWYRQAPGKERELVAAISRSGGSTRYADSVKGRFTISRDNAKNTVYLLMNSLKPEDTAVYYCAADGVPGRAVDYEYWGQGTQVTVSS | high polyreactivity |
| QVQLVESGGGLVQAGGSLRLSCAASGITFRRYAMGWYRQAPGKERELVAAITSSGGSTYYADSVKGRFSISRDNAKNTVYLQMNSLKPEDTAVYYCAARAYRVNWSSWYRSGYDYWGQGTQVTVSS | high polyreactivity |

| Sequence | polyreactivity (PSR sort gate) |
| --- | --- |
| QVQLVESGGGLVQAGGSLRLSCAASGITFRTYAMGWYRQAPGKERELVAGIRTRTGSTYYADSVKGRFTISRDNAKNTVYLQMNSLKPEDTAVYYCAAKGSGYYGRQRIYSYTYDYWGQGTQVTVSS | high polyreactivity |
| QVQLVESGGGLVQAGGSLRLSCAASGITFRVYVMGGYRQAPGKERELVAAITSGTSTYYADSVKGRFTISRDNAKNTVYLQMNSLKPEDTAVYYCAADWDLFYAVVGFDFDYWGQGTQVTVSS | low polyreactivity |
| QVQLVESGGGLVQAGGSLRLSCAASGITFRWYAMGWYRQAPGKERELVAAISSSGGSTYYADSVKGRFTISRDNAKNTVYLQMNSLKPEDTAVYYCAAYTSYASDYWGQGTQVTVSS | high polyreactivity |
| QVQLVESGGGLVQAGGSLRLSCAASGITFRYNAMGWYRQAPGKERELVAAITFSGGSTYYADSVKGRFTISRDNAKNTVNLQMNSLKPEDTAVYYCAKLGSTSSRGNYDYWGQGTQVTVSS | low polyreactivity |
| QVQLVESGGGLVQAGGSLRLSCAASGITFRYYAMGWYRQAPGKERELVAAISSGSSTYYADSVKGRFTISRDNAKNTVYLQMNSLKPEDTAVYYCAARTYTTSRATTVYKRLNYWGQGTQVTVSS | high polyreactivity |
| QVQLVESGGGLVQAGGSLRLSCAASGITFRYYAMGWYRQAPGKERELVAAITGNGGGTYADSVKGRFTISRDNAKNTVYLQMNSLKPEVTAVYYCAADEPGLSWYDSYRYPDYGYDYWGQGTQVTVSS | low polyreactivity |
| QVQLVESGGGLVQAGGSLRLSCAASGITFRYYAMGWYRQAPGKERELVATISWSGGSTYYADSVKGRFTISRDNAKNTVYLQMNSLKPEDTAVYYCNADWYRSAWSKYDYWGQGTQVTVSS | high polyreactivity |
| QVQLVESGGGLVQAGGSLRLSCAASGITFRYYTMGWYRQAPGKERELVAVISWSGGSTYYADSVKGRFTISRDNAKNTVYLQMNSLKPEDTAVYYCAAVRRISRYDYWGQGTQVTVSS | high polyreactivity |
| QVQLVESGGGLVQAGGSLRLSCAASGITFSFYAMGWYRQAPGKERELVADITRGGNTNYADSVKGRFTISRDNAKNTVYLQMNSLKPEDTAVYYCNARRRGAGGYDYWGQGTQVTVSS | high polyreactivity |
| QVQLVESGGGLVQAGGSLRLSCAASGITFSHYAMGWYRQAPGKERELVAGITWSGGRTYYADSVKGRFTISRDNAKNTVYLQMNSLKPEDTAVYYCAPIHRTGYDMDYWGQGTQVTVSS | low polyreactivity |
| QVQLVESGGGLVQAGGSLRLSCAASGITFSKYAMGWYRPAPGKERELVAAISSTASTNYADSVKGRFTISRDNAKHTVYFQMNSLKPEDTAVYYCNAGLFFQWFWTYDDYWGQGTQVTVSS | low polyreactivity |
| QVQLVESGGGLVQAGGSLRLSCAASGITFSLYAMGWYRQAPGKERELVAAISKSGGSTYYADSVKGRFTISRDNAKNTVYLQMNSLKPEDTAVYYCAADFVSKTPWHAQDDYWGQGTQVTVSS | low polyreactivity |
| QVQLVESGGGLVQAGGSLRLSCAASGITFSLYVMGWYRQAPGKERELVAAISTSGGSTYYADSVKGRFTISRDNAKNTVYLQMTSLKPEDTAVYYCAAVYVLSWYVQTYDYWGQGTQVTVSS | low polyreactivity |
| QVQLVESGGGLVQAGGSLRLSCAASGITFSRNAMGWYRQAPGKERELVATITSGGSTNYADSVKGRFTISRDNAKNTVYLQMNSLKPEDTAVYYCNAVWNTFISGRSYDYWGQGTQVTVSS | low polyreactivity |
| QVQLVESGGGLVQAGGSLRLSCAASGITFSRNVMGWYRQAPGKERELVAAISRSGGRTYYADSVKGRFTISRDTAKNTVYLQINSLKAEDTAVYYCNRDIGGTSVLDDYWGQGTQVTVSS | low polyreactivity |
| QVQLVESGGGLVQAGGSLRLSCAASGITFSRYAMGWYRQAPGKERELVAAISSGGSTYYADSVKGRFTISRDNAKNTVYLQMNSLIPEDTAVYYCAADGLTGSKYRATGYYWGQGTQVTVSS | high polyreactivity |
| QVQLVESGGGLVQAGGSLRLSCAASGITFSRYAMGWYRQAPGTERELVAAITSSGGSTYYADSVKGRFTISRDNAKNTVYLQMNSLKPEDTAVYYCAATSYYTREQYYYWGQGTQVTVSS | high polyreactivity |
| QVQLVESGGGLVQAGGSLRLSCAASGITFSSNTRGCYRQATGNETELVAAISSSGGSTYYADSVKGRFTISRDNAKNTFYLQINSLKPEDTAVYYCNTVRFRGWVWWEYDYWGQGTQVTVSS | high polyreactivity |
| QVQLVESGGGLVQAGGSLRLSCAASGITFSSYAMGWSRQAPGKERELVAAISSGGSTYYADSVKGRFTISRDNAKNTVYLQMNSLKPEDTAVYYCRPLVTLDWYKFGYWGQGTQVTVSS | low polyreactivity |
| QVQLVESGGGLVQAGGSLRLSCAASGITFSSYTMGWYRQAPGKERELVAVISSGGSTNYADSVKGRFTISRDNAKNTVYLQMNSLKPEETAVYYCAARRSKYIPYYGKWYYRAFDYWGQGTQVSVSS | high polyreactivity |
